Results on one molecule are retold here after patent publication US20220227811A1.

Usually Kd stands for the free concentration of one partner at which half of the binding sites on the other are occupied at equilibrium, for simple one-to-one binding. In general, koff refers to the first-order rate constant of dissociation. As usually defined, the kon is a measure of how fast the partners come together.

Assay [1] deals with human EphA2 protein (human), P29317. Description: SPR (Biacore T200), biotinylated EphA2 captured on a streptavidin chip, peptide as analyte, 1:1 fit. On the technique in general: In SPR one partner is held on a chip, and binding of the other changes the refractive index at the surface.
Assay [2] shares this target. Description: SPR (Biacore), biotinylated human EphA2 captured on a streptavidin chip, BCY13272 as analyte, 1:1 fit (Scrubber).
The target in assay [3] is CD137 on Jurkat reporter cells (Promega CD137 luciferase reporter assay, kit CS196005), Q07011. The experiment in a line: cell-based or functional assay.
Assay [4] deals with CD137 on human PBMCs (anti-CD3 stimulated, co-culture assay) (human), Q07011. Description: cell-based or functional assay.
Assay [5] addresses Recombinant human CD137 (R&D systems) (human), Q07011. Description: SPR (Biacore), biotinylated human CD137 captured on a streptavidin chip, BCY13272 as analyte, 1:1 fit (Scrubber).

Where “and” joins values, the source holds several entries; their conditions need not be identical. Identical values can stand only once. Starred links: 1 amine or outer side, 2 acyl side, 3 side chain; linkers in the order of their positions; H or OH if unused. Positions of bridges follow the written chain, without caps; N, C: chain ends. Non-standard residues stand in square brackets, D forms with d. Chains are numbered I, II in the order given. No end group written: not given here. *: point of attachment. TATA = O=C(CC[*:1])N1CN(C(=O)CC[*:2])CN(C(=O)CC[*:3])C1; d1Nal = N[C@H](Cc1cccc2ccccc12)C(=O)O; Hyp = O=C(O)[C@@H]1C[C@@H](O)CN1; hArg = N=C(N)NCCCC[C@H](N)C(=O)O; tBuAla = CC(C)(C)C[C@H](N)C(=O)O; Nle = CCCC[C@H](N)C(=O)O; Pent4ynoyl = C#CCCC(=O)*

Chain of CD137 on Jurkat reporter cells (Promega CD137 luciferase reporter assay, kit CS196005), Q07011 (Q07011 24-255 limits assumed): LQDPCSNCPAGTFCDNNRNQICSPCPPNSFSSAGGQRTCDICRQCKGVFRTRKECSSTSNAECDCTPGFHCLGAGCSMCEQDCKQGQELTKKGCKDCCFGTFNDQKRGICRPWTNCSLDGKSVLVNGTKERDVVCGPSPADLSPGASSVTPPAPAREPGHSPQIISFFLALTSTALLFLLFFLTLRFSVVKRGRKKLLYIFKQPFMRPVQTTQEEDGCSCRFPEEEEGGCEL
Chain of human EphA2 protein (human), P29317 (P29317 25-534 limits assumed): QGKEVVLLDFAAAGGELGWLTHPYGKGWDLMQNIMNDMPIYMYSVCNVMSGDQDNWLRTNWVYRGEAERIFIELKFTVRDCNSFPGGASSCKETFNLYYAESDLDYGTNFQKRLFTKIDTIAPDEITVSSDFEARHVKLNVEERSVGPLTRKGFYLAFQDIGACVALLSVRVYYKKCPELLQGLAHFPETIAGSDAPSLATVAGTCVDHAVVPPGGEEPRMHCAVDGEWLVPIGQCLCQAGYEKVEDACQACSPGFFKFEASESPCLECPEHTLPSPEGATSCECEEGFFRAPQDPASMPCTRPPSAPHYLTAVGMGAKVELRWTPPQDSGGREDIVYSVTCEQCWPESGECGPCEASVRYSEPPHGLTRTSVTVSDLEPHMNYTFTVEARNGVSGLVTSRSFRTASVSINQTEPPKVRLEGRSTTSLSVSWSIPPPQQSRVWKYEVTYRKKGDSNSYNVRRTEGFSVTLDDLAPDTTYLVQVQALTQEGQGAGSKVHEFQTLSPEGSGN
Chain of Recombinant human CD137 (R&D systems) (human), Q07011 (Q07011 24-186 limits assumed): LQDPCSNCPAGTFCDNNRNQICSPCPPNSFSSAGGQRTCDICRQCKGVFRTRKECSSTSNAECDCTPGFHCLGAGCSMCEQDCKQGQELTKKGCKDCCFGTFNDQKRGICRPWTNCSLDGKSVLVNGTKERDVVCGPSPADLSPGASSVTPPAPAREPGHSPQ
Chain of CD137 on human PBMCs (anti-CD3 stimulated, co-culture assay) (human), Q07011 (Q07011 24-255): as the sequence (Q07011 24-255 limits assumed) above

B1: EphA2/CD137 heterotandem bicyclic peptide complex BCY13272 (peptide)
peptide 1: A[hArg]DC[Hyp]LVNPLCLEP[d1Nal]WTC
peptide 2: Ac-C[tBuAla]PE[dK](Pent4ynoyl)PYCFADPY[Nle]CA
modifications: linker I:4-I:11-I:18, II:1-II:8-II:15 via TATA; not fully specified (N-terminus, bridges); also: chain 1 N-terminus coupled to N-(acid-PEG3)-N-bis(PEG3-azide) linker, D-Lys(PYA) of chain 2 clicked (triazole) to linker azide arm, complex has a second BCY8928 copy not listed as a chain
For B1, the Kd in assay [1] came to 2 nM. In assay [2], this molecule displayed a koff of 0.00102 s⁻¹ and a kon of 502000 M⁻¹ s⁻¹. In assay [3], the EC50 (nM), CD137 luciferase reporter assay, co-culture with EphA2 cell line A549 is 0.107 nM and 0.132 nM and 0.147 nM; the EC50 (nM), CD137 luciferase reporter assay, co-culture with EphA2 cell line HT-29 is 0.567 nM and 0.187 nM and 0.205 nM; the EC50 (nM), CD137 luciferase reporter assay, co-culture with EphA2 cell line PC-3 was 0.245 nM and 0.0805 nM and 0.0898 nM; the Emax (fold induction over background), CD137 luciferase reporter assay, co-culture with EphA2 cell line A549 is 23.6 fold and 30.2 fold and 25.7 fold. In assay [3], the Emax (fold induction over background), CD137 luciferase reporter assay, co-culture with EphA2 cell line HT-29 was 36.5 fold and 26 fold and 36.4 fold; the Emax (fold induction over background), CD137 luciferase reporter assay, co-culture with EphA2 cell line PC-3 was 44.5 fold and 44.2 fold and 53 fold; the Geo mean EC50/cell line, CD137 luciferase reporter assay, co-culture with EphA2 cell line A549 stood at 0.127 nM; the Geo mean EC50/cell line, CD137 luciferase reporter assay, co-culture with EphA2 cell line HT-29 worked out at 0.279 nM. The Geo mean EC50/cell line, CD137 luciferase reporter assay, co-culture with EphA2 cell line PC-3 in assay [3] was 0.117 nM. Further, in assay [4], the EC50 (nM) of IL-2 cytokine secretion, human PBMC co-culture with HT-1080 cells (N = 4) is 0.55 nM and the EC50 (nM) of IL-2 cytokine secretion, human PBMC co-culture with MC38 cells (N = 5) was determined as 0.79 nM. For the same molecule, in assay [5], the Kd is under 0.0331 nM, the koff was under 1e-05 s⁻¹ and the on-rate (kon) worked out at 302000 M⁻¹ s⁻¹.
